We go through 72 sequences from the supplement of paper PMC10567573.

± gives the standard deviation.

A short description of this series: protein stability index of a GFP-peptide fusion (GPS, HEK-293T) (PSI 1-6); higher = more stable.
[1] abbreviates: treatment: DMSO, c terminus: a fixed tail appended.
Where [2] appears, read: treatment: MLN4924 1 uM, 8 h, c terminus: a fixed tail appended.
Setting [3] is: treatment: DMSO, c terminus: native.
Where [4] appears, read: treatment: MLN4924 1 uM, 8 h, c terminus: native.
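Note: 24-mer peptide tiles fused after GFP, lentivirally expressed, FACS-sorted into six equal bins by GFP/DsRed ratio, decoded by Illumina sequencing, PSI is the read-weighted mean bin number.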

For the sequence GSDKCVFLKNTEVSSMECEKNLYW [CD69], the protein stability index was found to be 3.06 ± 0.26 under setting [1] and 3.12 ± 0.36 under setting [2].

For the sequence LTSDLYAPMVAGALARLGTVTVIS [SLC25A39], the protein stability index under setting [1] came to 2.92 ± 0.4 and the protein stability index under setting [2] turned out to be 2.67 ± 0.69.

On to QVVSQGWKYFKGNFYYFSLIPKTW [CD207], for which the protein stability index is 2.14 ± 0.41 under setting [1] and 2.1 ± 0.39 under setting [2].

On to DTANEIGQVLHFENVKDVPFGFQT [SERPINB5], for which the protein stability index is, setting by setting: under setting [1], 3.74 ± 0.075; under setting [2], 3.99 ± 0.2.

Turning to LVEELSPASEKKPVPPSEGKSRLS [BCL2L13], the protein stability index came out at 5.32 ± 0.31 under setting [1] and 5.46 ± 0.15 under setting [2].

As for EWVISTGHDKCVSWMCTRSGNMLG [WDFY1], the protein stability index was 2.09 ± 0.37 under setting [1] and 2.01 ± 0.41 under setting [2].

As to FTLASSSDTRVGAPATGSGTPGPF [CHIT1], the protein stability index is, setting by setting: under setting [1], 3.73 ± 0.19; under setting [2], 3.84 ± 0.39.

With TDRKLDDGDDKVFRRAPSWRKRFR [PPFIA4], the protein stability index came out at 4.38 ± 0.082 under setting [1] and 4.51 ± 0.47 under setting [2].

For NKTLLRLRLRKERVSDVQKVLQGG [PKD2L1], the protein stability index is, setting by setting: under setting [1], 2.65 ± 0.23; under setting [2], 2.94 ± 0.35.

On to EMRIPALNAYMKSLLSLPVWVLMD [NCF4], for which the protein stability index reads like this: under setting [1], 3.26 ± 0.95; under setting [2], 2.92 ± 0.55.

Consider DALDKIRYESLTDPSKLDSGKELK [HSP90AB1], for which the protein stability index came to 5.06 ± 0.1 under setting [1] and 5 ± 0.16 under setting [2].

Turning to LAAVTPHDFIEHILRKLPQQREKL [CCND2], the protein stability index amounted to 2.53 ± 0.17 under setting [1] and 2.74 ± 0.23 under setting [2].

With ALKAAKREQEKKPKKEANQAPKSK [LRRC59], the protein stability index is, setting by setting: under setting [1], 5.24 ± 0.27; under setting [2], 5.28 ± 0.18.

Take VLRSWYEKNKHIFPASRWEPYDPE [FAM50A]: the protein stability index under setting [1] was determined as 2.87 ± 0.078 and the protein stability index under setting [2] was 3 ± 0.21.

As to FTDYGLAALAVNTSILSRLPPEAL [RNF208], the protein stability index is, setting by setting: under setting [1], 2.29 ± 0.25; under setting [2], 2.13 ± 0.31.

For the sequence LNGASVLPHKSIGESVPEPRIIM [GMPPB], the protein stability index is, setting by setting: under setting [3], 3.65 ± 0.17; under setting [4], 3.71 ± 0.14.

For the sequence SNLTSNLASLVSQGMIQLALSGAS [RETREG3], the protein stability index is, setting by setting: under setting [1], 3.05 ± 0.12; under setting [2], 3.15 ± 0.24.

With ERYRHEIAHDGQRIYVLGGGTSWT [KLHDC10], the protein stability index turned out to be 2.83 ± 0.48 under setting [1] and 2.79 ± 0.23 under setting [2].

As for ANPFQAYLDVDLTLTREQTERLSH [RTN2], the protein stability index came out at 3.65 ± 0.3 under setting [1] and 3.67 ± 0.31 under setting [2].

As for APALPPGGTDPHGYHQVPGSAAPG [FOXJ1], the protein stability index is, setting by setting: under setting [1], 5.16 ± 0.18; under setting [2], 5.38 ± 0.4.

Turning to DIKAAFAPFGRISDARVVKDMATG [TIA1], the protein stability index by setting is: under setting [1], 3.31 ± 0.16; under setting [2], 3.18 ± 0.4.

Turning to PVTPQVGEGRKSRKFSRLSCLRRR [SMG5], the protein stability index worked out at 4.36 ± 0.068 under setting [1] and 4.34 ± 0.12 under setting [2].

RELLLDGGYLQRTTYDRRSSQERK [RSPH3]: the protein stability index under setting [1] worked out at 4.39 ± 0.28 and the protein stability index under setting [2] was found to be 4.8 ± 0.24.

Consider EMSEKRGPTSSNPRKRHREDSDVE [MLH1], for which the protein stability index by setting is: under setting [1], 5.49 ± 0.44; under setting [2], 5.49 ± 0.14.

Take GDGVPPRSLQDGTREGFGHSTSLK [LCOR]: the protein stability index is, setting by setting: under setting [1], 5.08 ± 0.24; under setting [2], 4.92 ± 0.22.

Take VNRKSVKGNTALHDCAESGSLDIM [FEM1C]: the protein stability index under setting [1] is 3.7 ± 0.28 and the protein stability index under setting [2] came to 3.46 ± 0.47.

For the sequence GELEDESLNRACHQQNKIKDLQKE [CEP70], the protein stability index is, setting by setting: under setting [1], 5.3 ± 0.28; under setting [2], 5.34 ± 0.24.

Regarding HVPELEMLGRLGYLNHVRAASPQD [MNAT1], the protein stability index by setting is: under setting [1], 3.44 ± 0.2; under setting [2], 3.45 ± 0.45.

Turning to ELCCVAELDNPMQQKWTKPARAGS [C2CD2L], the protein stability index stood at 3.37 ± 0.39 under setting [1] and 3.6 ± 0.2 under setting [2].

As to VRELVDKATNVVMNYSEIESKVRE [CLINT1], the protein stability index was 4 ± 0.38 under setting [1] and 3.8 ± 0.37 under setting [2].

For the sequence LEQRRQQASEREAPSIEQRLQEVR [FCHSD1], the protein stability index runs as follows: under setting [1], 5.37 ± 0.32; under setting [2], 5.26 ± 0.12.

In the case of SAKNTSHPGSGTKVQFNLQFTKPN [SASS6], the protein stability index is, setting by setting: under setting [1], 3.35 ± 0.12; under setting [2], 3.61 ± 0.14.

Take RPPAYSPAQRSHTYTHGLGLHRRP: the protein stability index is, setting by setting: under setting [1], 3.63 ± 0.28; under setting [2], 3.75 ± 0.16.

For YADFGPLNLAMVYRYCCKLNKKLK [CDC14A], the protein stability index is, setting by setting: under setting [1], 2.9 ± 0.58; under setting [2], 2.56 ± 0.43.

For MARVAWGLLWLLLGSAGAQYEKYS [P3H4], the protein stability index runs as follows: under setting [1], 3.18 ± 0.83; under setting [2], 3.16 ± 0.48.

In the case of GRLLFAGYNDYTINVWDVLKGSRV [GNB5], the protein stability index is 2.48 ± 0.58 under setting [1] and 2.18 ± 0.17 under setting [2].

VDLDPTDGKLFPSDGFRDCKKGDP [ELF3]: the protein stability index is, setting by setting: under setting [1], 5.31 ± 0.1; under setting [2], 5.2 ± 0.25.

For the sequence LVMEGTDDGRLLEYDTVTREVKVL [APMAP], the protein stability index was 3.5 ± 0.21 under setting [1] and 3.58 ± 0.37 under setting [2].

With SSSPPGTPSPADAKAPPTACYAGA [CEBPB], the protein stability index amounted to 5.14 ± 0.14 under setting [1] and 4.91 ± 0.29 under setting [2].

Regarding LQEPGVFSPTPPQQFQPAGTDQVC [FCHSD1], the protein stability index worked out at 4.25 ± 0.16 under setting [1] and 4.45 ± 0.27 under setting [2].

RKHSDLEEEEERWEWSPAGLQSYQ [SERTAD3]: the protein stability index amounted to 4.35 ± 0.26 under setting [1] and 4.38 ± 0.17 under setting [2].

Turning to MHANVEDRGIKGDITPLMAAANGG [ANKRD17], the protein stability index under setting [1] is 4.58 ± 0.14 and the protein stability index under setting [2] stood at 4.67 ± 0.086.

For the sequence NDADKAINTLNGLKLQTKTIKVSY [ELAVL3], the protein stability index came out at 2.96 ± 0.23 under setting [1] and 3.11 ± 0.25 under setting [2].

As for RQKDLKFLSEEEYWKLQIFFTNVI [CCNC], the protein stability index reads like this: under setting [1], 2.57 ± 0.25; under setting [2], 2.47 ± 0.83.

Take ADADCFVCVFLSHGEGNHIYAYDA [CASP6]: the protein stability index worked out at 2.82 ± 0.66 under setting [1] and 2.81 ± 0.75 under setting [2].

Consider DGITNGASWYSLSKGMQDFNYLHT [CPN1], for which the protein stability index runs as follows: under setting [1], 2.35 ± 0.13; under setting [2], 2.43 ± 0.22.

With PPKQAQKEQRKQMKGRGQLEKPPA [TBC1D10A], the protein stability index by setting is: under setting [1], 5.26 ± 0.18; under setting [2], 5.29 ± 0.21.

For the sequence LLDGLARRVGILGEELADVGGVLR [SCARA5], the protein stability index by setting is: under setting [1], 2.64 ± 0.2; under setting [2], 2.72 ± 0.4.

As to NYRSFEPILRLLPQGISPVSQHWA [ZER1], the protein stability index is 2 ± 0.27 under setting [1] and 2.09 ± 0.26 under setting [2].

With RSLNVFVKDDDRLTFHRHPVAQST [SPSB4], the protein stability index runs as follows: under setting [1], 3.51 ± 0.3; under setting [2], 3.62 ± 0.29.

Take NILLKNLVTIARKASLWQFLSSEK [TRIM43]: the protein stability index was 2.17 ± 0.42 under setting [1] and 2.13 ± 0.18 under setting [2].

As to TCLTGVLGVGLGVEISRRLRHSNP [SPNS1], the protein stability index runs as follows: under setting [1], 2.36 ± 0.22; under setting [2], 2.09 ± 0.36.

For the sequence SFVKKNVLVTGGFFGGFLLGMAS [FUNDC2], the protein stability index reads like this: under setting [3], 3.64 ± 0.15; under setting [4], 2.96 ± 0.41.

For the sequence PQALPEPMQESKAEGNNQAPGEEE [CHGA], the protein stability index by setting is: under setting [1], 5.54 ± 0.24; under setting [2], 5.5 ± 0.35.

WDPSPRGCFTLPRSEPIRPIDPAA [DVL3] registered a protein stability index under setting [1] of 3.98 ± 0.23 and a protein stability index under setting [2] of 3.77 ± 0.073.

For the sequence ITWNRVVLLHGPPGTGKTSLCKAL [TRIP13], the protein stability index is, setting by setting: under setting [1], 2.32 ± 0.58; under setting [2], 2.13 ± 0.2.

As to EDGEDFNLGDALDSSNSMQTIQKT [KRT18], the protein stability index is, setting by setting: under setting [1], 5.44 ± 0.29; under setting [2], 5.41 ± 0.32.

Regarding FTGNSKLELNFKAGDVIFLLSRIN [NCF4], the protein stability index was 2.67 ± 0.76 under setting [1] and 3.16 ± 1.1 under setting [2].

For QNQSDSLLALAGAVQRLEGALWGL [SCARA5], the protein stability index came out at 2.4 ± 0.35 under setting [1] and 2.33 ± 0.32 under setting [2].

On to LTCDSAQKCHSIGETDEVTKTEDR [ZSCAN9], for which the protein stability index reads like this: under setting [1], 5.27 ± 0.34; under setting [2], 5.59 ± 0.13.

GTGAVVTSLFMTPLDVVKVRLQSQ [SLC25A39]: the protein stability index is 2.18 ± 0.11 under setting [1] and 2.06 ± 0.52 under setting [2].

With LYVLKGGYKEFFMKCQSYCEPPSY [CDC25A], the protein stability index is 2.62 ± 0.68 under setting [1] and 2.65 ± 0.27 under setting [2].

As for LPILTWPVLQSRTGLVYDQNMMNH [HDAC6], the protein stability index reads like this: under setting [1], 2.25 ± 0.23; under setting [2], 2.3 ± 0.33.

Sequence FQVPVLCAVMNVVFITILIIALIA [CD69] registered a protein stability index under setting [1] of 2.91 ± 0.36 and a protein stability index under setting [2] of 2.96 ± 0.68.

On to NVVPIHVPPTTENKPKVQCCQNI [RAB11A], for which the protein stability index was 4.13 ± 0.19 under setting [3] and 4.12 ± 0.11 under setting [4].

Turning to MSGGGVIRGPAGNNDCRIYVGNLP [SRSF1], the protein stability index under setting [1] worked out at 2.85 ± 0.29 and the protein stability index under setting [2] is 2.96 ± 0.51.

With WTNGSGLALCQRYYHRGHVDPAND [MCOLN1], the protein stability index is, setting by setting: under setting [1], 3.11 ± 0.12; under setting [2], 3.12 ± 0.21.

On to EVFEGREDSILGDPKKLLTQHFVQ [MAGEA3], for which the protein stability index under setting [1] came to 3.42 ± 0.49 and the protein stability index under setting [2] is 3.29 ± 0.4.

Take QLKESKSKIDALSSEKLNLQKDLE [CEP70]: the protein stability index under setting [1] worked out at 5.03 ± 0.1 and the protein stability index under setting [2] was found to be 5.16 ± 0.13.

For HETRLVEVDSGRQIEYEYKLAQAL [LMNB1], the protein stability index is, setting by setting: under setting [1], 3.81 ± 0.044; under setting [2], 3.96 ± 0.29.

As for ILDLLVLEQFLSILPKELQGWVRE [ZSCAN9], the protein stability index reads like this: under setting [1], 2.38 ± 0.45; under setting [2], 2.19 ± 0.39.

As to DPLNICVFILLLVFIVVKCFTSE [RTP4], the protein stability index by setting is: under setting [3], 2.93 ± 0.24; under setting [4], 2.89 ± 0.098.
